Reference: PMC9841335, “Structure of a bacterial ribonucleoprotein complex central to the control of cell envelope biogenesis” (The EMBO Journal, 2022)

B1: RNase E-NTD (residues 1-598, Δ568–582, D346C) (domain or fragment)
chain: not shown
notes: also called mutant RNase E‐NTD; RNase E catalytic domain; source: E. coli BL21(DE3), pET16 vector, purified (IMAC, butyl Sepharose, Superdex 200 SEC)

What was measured:
[1] = molecular target: the molecule itself; test: cryo-EM structure; RNase E-NTD (D346C), full-length RapZ and full-length GlmZ RNA at 5:25:10 μM in 25 mM HEPES pH 7.5, 300 KCl, 1 mM MgCl2, cross-linked with 0.01% glutaraldehyde, Superose 6 SEC, graphene oxide-coated grids; binary RapZ:GlmZ and ternary classes from one dataset
[2] = molecular target: B1; test: as above; details: both partners purified
[3] = molecular target: T1, RNase E-NTD (wild type, BACTH fusion) (E. coli, UniProt P21513 1-529); test: two-hybrid; adenylate cyclase-based bacterial two-hybrid (BACTH) in E. coli BTH101, pKT25 (T25-RapZ) and pUT18C-type plasmids, LB with 1 mM IPTG, β-galactosidase activity; endogenous GlmZ present in the cell; details: partners not purified
T1 construct: RNase E, E. coli, N-terminal catalytic domain (NTD); The text calls the two-hybrid partner 'RNase E' and its variants 'RNase E‐NTD variants'; also called RNase E wild type; source: bacterial two-hybrid fusion (pUT18C-type plasmid) in E. coli BTH101

Row | Binder | stoichiometry N [1] | stoichiometry N [2] | fold decrease of the BACTH signal against wild-type RapZ [3]
1 | RapZ (full-length, purified recombinant) (natural protein, E. coli, UniProt P0A894 1-284, looked up, The Strep-tag is cleavable by TEV protease; Construct and procedure follow Gonzalez et al, 2017; In all complexes with RNase E-NTD the sRNA GlmZ was present; also called RapZ tetramer; full‐length RapZ; source: E. coli Rosetta, plasmid pMCSG7, purified (Strep Trap HP, Superdex 200 SEC)) MVLMIVSGRSGSGKSVALRALEDMGFYCVDNLPVVLLPDLARTLADREISAAVSIDVRNMPESPEIFEQAMSNLPDAFSPQLLFLDADRNTLIRRYSDTRRLHPLSSKNLSLESAIDKESDLLEPLRSRADLIVDTSEMSVHELAEMLRTRLLGKRERELTMVFESFGFKHGIPIDADYVFDVRFLPNPHWDPKLRPMTGLDKPVAAFLDRHTEVHNFIYQTRSYLELWLPMLETNNRSYLTVAIGCTGGKHRSVYIAEQLADYFRSRGKNVQSRHRTLEKRKP | 4 | 2 RapZ tetramers per RNase E-NTD tetramer | 
2 | T25-RapZ 4 substitutions (T161A, Y240A, N271A, Q273A; BACTH fusion) (natural protein, E. coli, UniProt P0A894 1-284, looked up, RapZ, E. coli, with alanine substitutions of Q273, N271, Y240 and T161; source: bacterial two-hybrid fusion (pKT25 plasmid) in E. coli BTH101) MVLMIVSGRSGSGKSVALRALEDMGFYCVDNLPVVLLPDLARTLADREISAAVSIDVRNMPESPEIFEQAMSNLPDAFSPQLLFLDADRNTLIRRYSDTRRLHPLSSKNLSLESAIDKESDLLEPLRSRADLIVDTSEMSVHELAEMLRTRLLGKRERELAMVFESFGFKHGIPIDADYVFDVRFLPNPHWDPKLRPMTGLDKPVAAFLDRHTEVHNFIYQTRSYLELWLPMLETNNRSALTVAIGCTGGKHRSVYIAEQLADYFRSRGKAVASRHRTLEKRKP |  |  | 2 fold
3 | B1 | 4 |  | 
